# Like-named read-outs stand apart in the source and are kept apart here.
# B1: mouse CRY1 1-496 (PHR) (domain or fragment)
# chain: MGVNAVHWFRKGLRLHDNPALKECIQGADTIRCVYILDPWFAGSSNVGINRWRFLLQCLEDLDANLRKLNSRLFVIRGQPADVFPRLFKEWNITKLSIEYDSEPFGKERDAAIKKLATEAGVEVIVRISHTLYDLDKIIELNGGQPPLTYKRFQTLVSKMEPLEMPADTITSDVIGKCMTPLSDDHDEKYGVPSLEELGFDTDGLSSAVWPGGETEALTRLERHLERKAWVANFERPRMNANSLLASPTGLSPYLRFGCLSCRLFYFKLTDLYKKVKKNSSPPLSLYGQLLWREFFYTAATNNPRFDKMEGNPICVQIPWDKNPEALAKWAEGRTGFPWIDAIMTQLRQEGWIHHLARHAVACFLTRGDLWISWEEGMKVFEELLLDADWSINAGSWMWLSCSSFFQQFFHCYCPVGFGRRTDPNGDYIRRYLPVLRGFPAKYIYDPWNAPEGIQKVAKCLIGVNYPKPMVNHAEASRLNIERMKQIYQQLSRYRG
# Experiments:
# [1] = molecular target: T1, mouse PER1 1013-1291 R1111A (mouse, UniProt O35973 1013-1291, R1111A); test: ITC
# [2] = molecular target: T1, mouse PER1 1013-1291 R1111A; test: ITC; remark: listed apart in the source
binder,measurement,setting,value
B1,Kd,[1],10 nM
same,Kd,[2],9.8 nM
